Data on 11 molecules can be found in US20240270821A1, “GIP/GLP1/GCG TRI-RECEPTOR AGONISTS AND USES THEREOF” (priority 2023, published 2024).

Substitutions are numbered along the chain they refer to. Starred links: 1 amine or outer side, 2 acyl side, 3 side chain; linkers in the order of their positions; H or OH if unused. Non-standard residues stand in square brackets, D forms with d. Groups on a side chain read outwards from the residue. No end group written: not given here. *: point of attachment. C18 diacid = O=C(O)CCCCCCCCCCCCCCCCC(=O)*; γGlu = O=C(O)[C@H](CCC(=O)[*:2])N[*:1]; αMeL = CC(C)C[C@](C)(N)C(=O)O; Dab = NCC[C@H](N)C(=O)O; AEEA = NCCOCCOCC(=O)O; Aib = CC(C)(N)C(=O)O

Holding throughout (assay): cell-based or functional assay
Assay [1] concerns the target human glucagon receptor (human) (UniProt P47871).
Assay [2] addresses T1, human GIP receptor (human) (UniProt P48546).
T1 sequence (looked up): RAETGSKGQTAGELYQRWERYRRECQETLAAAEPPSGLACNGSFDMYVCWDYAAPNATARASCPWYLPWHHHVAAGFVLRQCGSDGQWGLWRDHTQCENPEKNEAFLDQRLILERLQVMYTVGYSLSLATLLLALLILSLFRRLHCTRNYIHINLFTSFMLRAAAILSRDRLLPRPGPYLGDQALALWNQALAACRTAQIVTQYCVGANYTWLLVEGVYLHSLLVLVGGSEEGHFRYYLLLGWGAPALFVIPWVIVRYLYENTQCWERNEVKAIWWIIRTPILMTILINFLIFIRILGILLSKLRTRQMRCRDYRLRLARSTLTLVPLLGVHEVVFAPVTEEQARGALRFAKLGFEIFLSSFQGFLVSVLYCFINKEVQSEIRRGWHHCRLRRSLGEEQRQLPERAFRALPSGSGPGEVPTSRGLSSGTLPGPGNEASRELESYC

A further assay concerns the target hGLP-1R (Homo sapiens, UniProt P43220).

human glucagon receptor (human), sequence (P47871 26-477): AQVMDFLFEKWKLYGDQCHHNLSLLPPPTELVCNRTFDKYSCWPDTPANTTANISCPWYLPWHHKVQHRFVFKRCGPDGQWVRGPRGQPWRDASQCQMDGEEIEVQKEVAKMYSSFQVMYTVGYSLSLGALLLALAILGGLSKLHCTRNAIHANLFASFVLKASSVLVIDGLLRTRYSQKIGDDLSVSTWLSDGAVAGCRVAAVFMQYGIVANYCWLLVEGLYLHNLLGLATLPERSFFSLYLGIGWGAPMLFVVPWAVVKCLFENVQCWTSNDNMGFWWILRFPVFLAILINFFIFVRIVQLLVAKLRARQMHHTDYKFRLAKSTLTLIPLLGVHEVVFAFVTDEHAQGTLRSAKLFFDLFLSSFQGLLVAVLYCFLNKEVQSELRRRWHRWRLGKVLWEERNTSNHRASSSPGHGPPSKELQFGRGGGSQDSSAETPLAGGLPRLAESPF
hGLP-1R, sequence (P43220 24-463): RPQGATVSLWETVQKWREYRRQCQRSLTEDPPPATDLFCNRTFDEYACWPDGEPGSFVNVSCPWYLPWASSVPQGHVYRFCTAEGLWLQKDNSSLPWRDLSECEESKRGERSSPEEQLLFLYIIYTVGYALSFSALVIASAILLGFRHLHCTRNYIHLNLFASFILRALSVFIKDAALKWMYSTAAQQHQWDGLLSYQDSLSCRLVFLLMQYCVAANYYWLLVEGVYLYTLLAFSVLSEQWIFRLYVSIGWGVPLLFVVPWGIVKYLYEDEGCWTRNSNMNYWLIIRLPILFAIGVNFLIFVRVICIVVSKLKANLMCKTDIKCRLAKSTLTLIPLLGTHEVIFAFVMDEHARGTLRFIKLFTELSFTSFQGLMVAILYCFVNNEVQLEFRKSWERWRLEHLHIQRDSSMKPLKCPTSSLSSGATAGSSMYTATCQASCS

B1: Example 149 (peptide)
chain: YXQGTFTSDFSRXLDKKAQXAFIEYLLEGGESSGAPPPSGS
modifications: Aib, alpha-methyl-Leu, lipidated Lys, C-terminal amide; synthetic construct; SITE 2: note = 2-Aminoisobutyric Acid; SITE 13: note = alpha-methyl-leucine; SITE 17: note = Lysine is chemically modified through conjugation of the epsilon-amino group of the Lysine side chain with (2-[2-(2-Amino-ethoxy)-ethoxy]-acetyl)2-(gamma-Glu)-CO-(CH2 )16-CO2H; SITE 20:
As for B1, the results for the Relative cAMP EC50, nM (0.1% casein) (in assay [1]; in assay [2]; with hGLP-1R) were 12.6 nM, 0.46 nM and 3.85 nM, respectively. The cAMP Rel EC50, nM (1% HSA) in assay [1] was determined as 1420 nM; in assay [2], 44.9 nM; with hGLP-1R, 801 nM.

B2: Example 135 (peptide)
chain: B1 chain with R12X, G29A, E31P, A35E, S41E
modifications: synthetic construct; SITE 2: note = 2-Aminoisobutyric Acid; SITE 12: note = L-ornithine; SITE 13: note = alpha-methyl-leucine; SITE 17: note = Lysine is chemically modified through conjugation of the epsilon-amino group of the Lysine side chain with (2-[2-(2-Amino-ethoxy)-ethoxy]-acetyl)-(gamma-Glu)
Turning to B2, the values for the Relative cAMP EC50 (in assay [1]; in assay [2]; in the assay with hGLP-1R) were 2.53 nM, 0.246 nM and 3.3 nM, respectively. For the same molecule, the results for the cAMP Rel EC50, nM (in the presence of 1% HSA) (in assay [1]; in assay [2]; with hGLP-1R) were 557 nM, 23.4 nM and 472 nM, respectively.

B3: Example 14 (peptide)
chain: B1 chain with R12K, E28A, E31P
modifications: non-natural residues, acyl lysine, C-terminal amide; synthetic construct; SITE 2: note = 2-Aminoisobutyric Acid; SITE 13: note = alpha-methyl-leucine; SITE 17: note = Lysine is chemically modified through conjugation of the epsilon-amino group of the Lysine side chain with (2-[2-(2-Amino-ethoxy)-ethoxy]-acetyl)-(gamma-Glu)-CO-(CH2) 18-CO2H; SITE 20: n
In the case of B3, the values for the Relative cAMP EC50 (in assay [1]; in assay [2]; with hGLP-1R) were 7.23 nM, 0.17 nM and 1.67 nM, respectively. In addition, the cAMP Rel EC50 (in the presence of 1% HSA) in assay [1] is 1420 nM; in assay [2], 34.7 nM; in the assay with hGLP-1R it was 232 nM.

B4: Example 145 (peptide)
chain: B1 chain with R12X
modifications: synthetic construct; SITE 2: note = 2-Aminoisobutyric Acid; SITE 12: note = L-ornithine; SITE 13: note = alpha-methyl-leucine; SITE 17: note = Lysine is chemically modified through conjugation of the epsilon-amino group of the Lysine side chain with (2-[2-(2-Amino-ethoxy)-ethoxy]-acetyl)-(gamma-Glu)
In the case of B4, the figures for the Relative cAMP EC50 (in assay [1]; in assay [2]; in the assay with hGLP-1R) were 3.14 nM, 0.539 nM and 4.26 nM, respectively. Further, the cAMP Rel EC50, nM (in the presence of 1% HSA) in assay [1] came to 693 nM; in assay [2], 108 nM; with hGLP-1R, 1480 nM.

B5: Example 144 (peptide)
chain: B1 chain with E31P
modifications: synthetic construct; SITE 2: note = 2-Aminoisobutyric Acid; SITE 13: note = alpha-methyl-leucine; SITE 17: note = Lysine is chemically modified through conjugation of the epsilon-amino group of the Lysine side chain with (2-[2-(2-Amino-ethoxy)-ethoxy]-acetyl)2-(gamma-Glu)-CO-(CH2 )16-CO2H; SITE 20:
Take B5: the figures for the Relative cAMP EC50 (in assay [1]; in assay [2]; with hGLP-1R) were 14.8 nM, 0.23 nM and 4.02 nM, respectively. Further, the values for the cAMP Rel EC50, nM (in the presence of 1% HSA) (in assay [1]; in assay [2]; with hGLP-1R) were 2600 nM, 46.2 nM and 990 nM, respectively.

B6: Example 147 (peptide)
chain: B1 chain with R12K
modifications: Aib, αMeL, (AEEA)2-γGlu-C18 diacid lysine acylation, C-terminal amide; synthetic construct; SITE 2: note = 2-Aminoisobutyric Acid; SITE 13: note = alpha-methyl-leucine; SITE 17: note = Lysine is chemically modified through conjugation of the epsilon-amino group of the Lysine side chain with (2-[2-(2-Amino-ethoxy)-ethoxy]-acetyl)2-(gamma-Glu)-CO-(CH2 )16-CO2H; SITE 20:
For the molecule B6, the Relative cAMP EC50, nM (0.1% casein) turned out to be 4.39 nM in assay [1], 0.343 nM in assay [2] and 4.26 nM with hGLP-1R. Moreover, the cAMP Rel EC50, nM (1% HSA) in assay [1] turned out to be 877 nM; in assay [2], 108 nM; with hGLP-1R, 964 nM.

B7: Example 131 (peptide)
chain: B1 chain with R12X, E31P, A35E
modifications: synthetic construct; SITE 2: note = 2-Aminoisobutyric Acid; SITE 12: note = L-ornithine; SITE 13: note = alpha-methyl-leucine; SITE 17: note = Lysine is chemically modified through conjugation of the epsilon-amino group of the Lysine side chain with (2-[2-(2-Amino-ethoxy)-ethoxy]-acetyl)-(gamma-Glu)
In the case of B7, the Relative cAMP EC50 was found to be 2.64 nM in assay [1], 0.416 nM in assay [2] and 5.51 nM with hGLP-1R. For the same molecule, the results for the cAMP Rel EC50, nM (in the presence of 1% HSA) (in assay [1]; in assay [2]; in the assay with hGLP-1R) were 976 nM, 91.8 nM and 984 nM, respectively.

B8: Example 27 (peptide)
chain: YXQGTFTSDFSKXLDKKAQXAFIQYLLAGGPSSGEPPPSEG
modifications: Aib, αMeL, acylated Lys, C-terminal amide; synthetic construct; SITE 2: note = 2-Aminoisobutyric Acid; SITE 13: note = alpha-methyl-leucine; SITE 17: note = Lysine is chemically modified through conjugation of the epsilon-amino group of the Lysine side chain with (2-[2-(2-Amino-ethoxy)-ethoxy]-acetyl)-(gamma-Glu)-CO-(CH2) 18-CO2H; SITE 20: n
For B8, the Relative cAMP EC50 is 8.91 nM in assay [1], 0.41 nM in assay [2] and 2.33 nM with hGLP-1R. Further, the cAMP Rel EC50 (in the presence of 1% HSA) in assay [1] came to 1180 nM; in assay [2] it was 72.3 nM; with hGLP-1R, 464 nM.

B9: Example 142 (peptide)
chain: B1 chain with R12K, E31P
modifications: synthetic construct; SITE 2: note = 2-Aminoisobutyric Acid; SITE 13: note = alpha-methyl-leucine; SITE 17: note = Lysine is chemically modified through conjugation of the epsilon-amino group of the Lysine side chain with (2-[2-(2-Amino-ethoxy)-ethoxy]-acetyl)2-(gamma-Glu)-CO-(CH2 )16-CO2H; SITE 20:
For the molecule B9, the Relative cAMP EC50 stood at 3.49 nM in assay [1], 0.216 nM in assay [2] and 4.37 nM with hGLP-1R. Besides, the cAMP Rel EC50, nM (in the presence of 1% HSA) was found to be 1230 nM in assay [1], 14.1 nM in assay [2] and 391 nM with hGLP-1R.

B10: Example 47 (peptide)
chain: B8 chain with Q24E, A28E, G30A, E35A
modifications: synthetic construct; SITE 2: note = 2-Aminoisobutyric Acid; SITE 13: note = alpha-methyl-leucine; SITE 17: note = Lysine is chemically modified through conjugation of the epsilon-amino group of the Lysine side chain with (2-[2-(2-Amino-ethoxy)-ethoxy]-acetyl)-(gamma-Glu)-CO-(CH2) 18-CO2H; SITE 20: n
Take B10: the figures for the Relative cAMP EC50 (in assay [1]; in assay [2]; in the assay with hGLP-1R) were 5.61 nM, 0.388 nM and 3.4 nM, respectively.
Take Y[Aib]QGTFTSDFS[Dab][αMeL]LDKK([AEEA-γGlu-C18 diacid])AQ[Aib]AFIEYLLE[Aib]GPSSGAPPPSGS-NH2 (ends and bridges not checked) [Example 133]: the results for the Relative cAMP EC50 (in assay [1]; in assay [2]; in the assay with hGLP-1R) were 1.64 nM, 0.15 nM and 3.6 nM, respectively. Further, the cAMP Rel EC50, nM (in the presence of 1% HSA) stood at 642 nM in assay [1], 23.1 nM in assay [2] and 1180 nM with hGLP-1R.
